{
  "source": "paper PMC6488673",
  "about": "“Crystal structure of the Lin28-interacting module of human terminal uridylyltransferase that regulates let-7 expression”",
  "target": "T1, hTUT4_N;hLin28A (human;human, UniProt Q5TAX3;Q9H9Z2 253-578+611-723;1-209, internal_change|)",
  "T1 sequence 1": "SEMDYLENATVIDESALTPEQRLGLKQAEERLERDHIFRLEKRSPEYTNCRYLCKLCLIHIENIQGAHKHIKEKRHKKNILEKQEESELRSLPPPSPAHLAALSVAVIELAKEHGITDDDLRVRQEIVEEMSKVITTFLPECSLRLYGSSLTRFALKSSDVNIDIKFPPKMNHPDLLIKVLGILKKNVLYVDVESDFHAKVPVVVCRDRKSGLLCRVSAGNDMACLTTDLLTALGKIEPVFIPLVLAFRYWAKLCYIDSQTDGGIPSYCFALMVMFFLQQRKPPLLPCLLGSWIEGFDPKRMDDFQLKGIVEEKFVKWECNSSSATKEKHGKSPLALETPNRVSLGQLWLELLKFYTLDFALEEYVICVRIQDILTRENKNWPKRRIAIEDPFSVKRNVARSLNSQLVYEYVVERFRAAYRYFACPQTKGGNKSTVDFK",
  "T1 sequence 2": "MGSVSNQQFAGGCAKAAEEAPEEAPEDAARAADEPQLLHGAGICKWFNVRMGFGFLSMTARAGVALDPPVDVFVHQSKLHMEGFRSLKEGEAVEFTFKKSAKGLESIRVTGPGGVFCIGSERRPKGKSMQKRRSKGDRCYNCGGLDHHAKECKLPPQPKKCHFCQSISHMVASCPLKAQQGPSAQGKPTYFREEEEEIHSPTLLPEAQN",
  "assay": "EMSA; ternary complex; 300 nM each protein, 100 nM RNA; EMSA: 50 mM Tris-HCl pH 8.5, 100 mM NaCl, 10 mM MgCl2, 10 mM beta-mercaptoethanol, 10% glycerol, 10 min, room temperature; Tb(III) footprinting: same salts, 5%",
  "settings": "protein: recombinant;recombinant; tags: C-terminal expression tag, residues 724-731 (pET22b, XhoI, Ni-NTA);N-terminal His tag (pET28b; Ni-NTA purified); copies: 1;1; label: none in EMSA (ethidium bromide stain); hairpin",
  "data": [
    {"binder": "pre-let-7a-1 (structured_RNA) RNA: UGAGGUAGUAGGUUGUAUAGUUUUAGGGUCACACCCACCACUGGGAGAUAACUAUACAAUCUACUGUCUUUC", "values": [
      {"measurement": "binding result", "result": "binds"}
    ]}
  ]
}
